From patent US10704030B2, “P450-BM3 variants with improved activity” (Codexis, Inc., priority 2015, dated 2020)

Legend:
Type in all cases: biochemical
[1] = Validation of generalist properties: oxidation of gefitinib by lyophilized P450-BM3 variant, UPLC-MS; settings: [Gefitinib] = 1 mM; for TON: TON = [substrate]*% conversion/[P450]; for FIOPC (F02): fold improvement over parent MCYP-P1.2-F02
In short: (§1)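 Lyophilized lysate of E. coli-expressed P450-BM3 variant (stock standardized to 12 μM heme) was incubated 24 h at 30 °C with 1 or 2 mM substrate, 1.0 mM NADP+, 25 mM glucose, 0.5 mg/mL glucose dehydrogenase and 5% DMSO in 100 mM potassium phosphate. Acetonitrile-quenched samples were analyzed by UPLC-MS (positive ESI).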

[2] = Validation of generalist properties: oxidation of diclofenac by lyophilized P450-BM3 variant, UPLC-MS; settings: [Diclofenac] = 1 mM; for TON: TON = [substrate]*% conversion/[P450]; for FIOPC (F02): fold improvement over parent MCYP-P1.2-F02
In short: as §1

[3] = Validation of generalist properties: oxidation of loratadine by lyophilized P450-BM3 variant, UPLC-MS; settings: [Loratadine] = 1 mM; for TON: TON = [substrate]*% conversion/[P450]; for FIOPC (F02): fold improvement over parent MCYP-P1.2-F02
In short: as §1

[4] = Validation of generalist properties: oxidation of imatinib by lyophilized P450-BM3 variant, UPLC-MS; settings: [Imatinib] = 1 mM; for TON: TON = [substrate]*% conversion/[P450]; for FIOPC (F02): fold improvement over parent MCYP-P1.2-F02
In short: as §1

B1: SEQ ID NO: 14: P450-BM3 parental backbone from the commercially available MCYP panel (MCYP-0343; Codexis) (protein)
chain: MTIKEMPQPKTFGELKNLPLLNTDKPVQALMKIADELGEIFKFEAPGLVTRYLSSQRLIKEACDESRFDKNLSQALKFARDFAGDGLFTSWTHEKNWKKAHNILLPSFSQQAMKGYHAMMVDIAVQLVQKWERLNADEHIEVPEDMTRLTLDTIGLCGFNYRFNSFYRDQPHPFITSMVRALDEAMNKQQRANPDDPAYDENKRQFQEDIKVMNDLVDKIIADRKASGEQSDDLLTHMLNGKDPETGEPLDDENIRYQIITFLIAGHETTSGLLSFALYFLVKNPHVLQKAAEEAARVLVDPVPSYKQVKQLKYVGMVLNEALRLWPTAPAFSLYAKEDTVLGGEYPLEKGDELMVLIPQLHRDKTIWGDDVEEFRPERFENPSAIPQHAFKPFGNGQRACIGQQFALHEATLVLGMMLKHFDFEDHTNYELDIKETLTLKPEGFVVKAKSKKIPLGGIPSPSTEQSAKKVRKKAENAHNTPLLVLYGSNMGTAEGTARDLADIAMSKGFAPQVATLDSHAGNLPREGAVLIVTASYNGHPPDNAKQFVDWLDQASADEVKGVRYSVFGCGDKNWATTYQKVPAFIDETLAAKGAENIADRGEADASDDFEGTYEEWREHMWSDVAAYFNLDIENSEDNKSTLSLQFVDSAADMPLAKMHGAFSTNVVASKELQQPGSARSTRHLEIELPKEASYQEGDHLGVIPRNYEGIVNRVTARFGLDASQQIRLEAEEEKLAHLPLAKTVSVEELLQYVELQDPVTRTQLRAMAAKTVCPPHKVELEALLEKQAYKEQVLAKRLTMLELLEKYPACEMKFSEFIALLPSIRPRYYSISSSPRVDEKQASITVSVVSGEAWSGYGEYKGIASNYLAELQEGDTITCFISTPQSEFTLPKDPETPLIMVGPGTGVAPFRGFVQARKQLKEQGQSLGEAHLYFGCRSPHEDYLYQEELENAQSEGIITLHTAFSRMPNQPKTYVQHVMEQDGKKLIELLDQGAHFYICGDGSQMAPAVEATLMKSYADVHQVSEADARLWLQQLEEKGRYAKDVWAG
modifications: P450_BM3
In the case of B1, the “% Conv.” value [1] is reported as “+ (0-5.00)”, the TON [1] is reported as “‡ (0-1000)” and the “% Conv.” value [2] is reported as “+ (0-5.00)”. For the same molecule, the TON [2] was “‡ (0-1000)”, the “% Conv.” value [3] was “+ (0-5.00)” and the TON [3] was “‡‡ (1001-5000)”. For the same molecule, the “% Conv.” value [4] was “+ (0-5.00)” and the TON [4] was “‡‡ (1001-5000)”.

B2: Variant 1: P450-BM3 variant of SEQ ID NO: 14: Y52F; K95P; G115R; T176V; L216Y; D232H; E349T; M491A; T577A; E619D (protein)
chain: MTIKEMPQPKTFGELKNLPLLNTDKPVQALMKIADELGEIFKFEAPGLVTRFLSSQRLIKEACDESRFDKNLSQALKFARDFAGDGLFTSWTHEPNWKKAHNILLPSFSQQAMKRYHAMMVDIAVQLVQKWERLNADEHIEVPEDMTRLTLDTIGLCGFNYRFNSFYRDQPHPFIVSMVRALDEAMNKQQRANPDDPAYDENKRQFQEDIKVMNDYVDKIIADRKASGEQSHDLLTHMLNGKDPETGEPLDDENIRYQIITFLIAGHETTSGLLSFALYFLVKNPHVLQKAAEEAARVLVDPVPSYKQVKQLKYVGMVLNEALRLWPTAPAFSLYAKEDTVLGGEYPLTKGDELMVLIPQLHRDKTIWGDDVEEFRPERFENPSAIPQHAFKPFGNGQRACIGQQFALHEATLVLGMMLKHFDFEDHTNYELDIKETLTLKPEGFVVKAKSKKIPLGGIPSPSTEQSAKKVRKKAENAHNTPLLVLYGSNAGTAEGTARDLADIAMSKGFAPQVATLDSHAGNLPREGAVLIVTASYNGHPPDNAKQFVDWLDQASADEVKGVRYSVFGCGDKNWAATYQKVPAFIDETLAAKGAENIADRGEADASDDFEGTYEEWRDHMWSDVAAYFNLDIENSEDNKSTLSLQFVDSAADMPLAKMHGAFSTNVVASKELQQPGSARSTRHLEIELPKEASYQEGDHLGVIPRNYEGIVNRVTARFGLDASQQIRLEAEEEKLAHLPLAKTVSVEELLQYVELQDPVTRTQLRAMAAKTVCPPHKVELEALLEKQAYKEQVLAKRLTMLELLEKYPACEMKFSEFIALLPSIRPRYYSISSSPRVDEKQASITVSVVSGEAWSGYGEYKGIASNYLAELQEGDTITCFISTPQSEFTLPKDPETPLIMVGPGTGVAPFRGFVQARKQLKEQGQSLGEAHLYFGCRSPHEDYLYQEELENAQSEGIITLHTAFSRMPNQPKTYVQHVMEQDGKKLIELLDQGAHFYICGDGSQMAPAVEATLMKSYADVHQVSEADARLWLQQLEEKGRYAKDVWAG
modifications: P450_BM3
notes: K95P; G115R; T176V; L216Y; D232H; E349T; M491A; T577A; E619D
With B2 the “% Conv.” value [1] was “+ (0-5.00)”, the TON [1] was “‡ (0-1000)” and the “FIOPC (F02)” value [1] was “* (0.0-3.0)”. The “% Conv.” value [2] was “+ (0-5.00)”, the TON [2] was “‡‡ (1001-5000)” and the “FIOPC (F02)” value [2] was “**** (10.01-15.00)”. For the same molecule, the “% Conv.” value [3] was “+ (0-5.00)”, the TON [3] was “‡‡ (1001-5000)” and the “FIOPC (F02)” value [3] was “* (0.0-3.0)”. The “% Conv.” value [4] was “++++ (15.01-20.00)”, the TON [4] was “‡‡‡‡ (10000-50000)” and the “FIOPC (F02)” value [4] was “**** (10.01-15.00)”.

B3: Variant 2: P450-BM3 variant of SEQ ID NO: 14: Y52F; G115R; T176V; L216Y; D232H; P347T; E349T; T577A; D722S (protein)
chain: MTIKEMPQPKTFGELKNLPLLNTDKPVQALMKIADELGEIFKFEAPGLVTRFLSSQRLIKEACDESRFDKNLSQALKFARDFAGDGLFTSWTHEKNWKKAHNILLPSFSQQAMKRYHAMMVDIAVQLVQKWERLNADEHIEVPEDMTRLTLDTIGLCGFNYRFNSFYRDQPHPFIVSMVRALDEAMNKQQRANPDDPAYDENKRQFQEDIKVMNDYVDKIIADRKASGEQSHDLLTHMLNGKDPETGEPLDDENIRYQIITFLIAGHETTSGLLSFALYFLVKNPHVLQKAAEEAARVLVDPVPSYKQVKQLKYVGMVLNEALRLWPTAPAFSLYAKEDTVLGGEYTLTKGDELMVLIPQLHRDKTIWGDDVEEFRPERFENPSAIPQHAFKPFGNGQRACIGQQFALHEATLVLGMMLKHFDFEDHTNYELDIKETLTLKPEGFVVKAKSKKIPLGGIPSPSTEQSAKKVRKKAENAHNTPLLVLYGSNMGTAEGTARDLADIAMSKGFAPQVATLDSHAGNLPREGAVLIVTASYNGHPPDNAKQFVDWLDQASADEVKGVRYSVFGCGDKNWAATYQKVPAFIDETLAAKGAENIADRGEADASDDFEGTYEEWREHMWSDVAAYFNLDIENSEDNKSTLSLQFVDSAADMPLAKMHGAFSTNVVASKELQQPGSARSTRHLEIELPKEASYQEGDHLGVIPRNYEGIVNRVTARFGLSASQQIRLEAEEEKLAHLPLAKTVSVEELLQYVELQDPVTRTQLRAMAAKTVCPPHKVELEALLEKQAYKEQVLAKRLTMLELLEKYPACEMKFSEFIALLPSIRPRYYSISSSPRVDEKQASITVSVVSGEAWSGYGEYKGIASNYLAELQEGDTITCFISTPQSEFTLPKDPETPLIMVGPGTGVAPFRGFVQARKQLKEQGQSLGEAHLYFGCRSPHEDYLYQEELENAQSEGIITLHTAFSRMPNQPKTYVQHVMEQDGKKLIELLDQGAHFYICGDGSQMAPAVEATLMKSYADVHQVSEADARLWLQQLEEKGRYAKDVWAG
modifications: P450_BM3
notes: G115R; T176V; L216Y; D232H; P347T; E349T; T577A; D722S
For B3, the “% Conv.” value [1] was “+ (0-5.00)”, the TON [1] was “‡ (0-1000)” and the “FIOPC (F02)” value [1] was “* (0.0-3.0)”. The “% Conv.” value [2] was “+ (0-5.00)”, the TON [2] was “‡‡ (1001-5000)” and the “FIOPC (F02)” value [2] was “**** (10.01-15.00)”. The “% Conv.” value [3] was “+ (0-5.00)”, the TON [3] was “‡‡ (1001-5000)” and the “FIOPC (F02)” value [3] was “* (0.0-3.0)”. For the same molecule, the “% Conv.” value [4] was “++++ (15.01-20.00)”, the TON [4] was “‡‡‡‡ (10000-50000)” and the “FIOPC (F02)” value [4] was “**** (10.01-15.00)”.

B4: SEQ ID NO:16: P450-BM3 parental backbone from the commercially available MCYP panel (MCYP-0343; Codexis) (protein)
chain: MTIKEMPQPKTFGELKNLPLLNTDKPVQALMKIADELGEIFKFEAPGCVTRYLSSQRLIKEACDESRFDKNLSQALKFARDFLGDGLVTSWTHEINWKKAHNILLPSFSQQAMKGYHAMMVDIAVQLVQKWERLNADEHIEVSEDMTRLTLDTIGLCGFNYRFNSFYRDQPHPFIISMVRALDEVMNKLQRANPDDPAYDENKRQCQEDIKVMNDLVDKIIADRKARGEQSDDLLTQMLNGKDPETGEPLDDGNISYQIITFLIAGHETTSGLLSFALYFLVKNPHVLQKVAEEAARVLVDPVPSYKQVKQLKYVGMVLNEALRLWPTAPAFSLYAKEDTVLGGEYPLEKGDEVMVLIPQLHRDKTIWGDDVEEFRPERFENPSAIPQHAFKPFGNGQRACIGQQFALHEATLVLGMMLKHFDFEDHTNYELDIKETLTLKPEGFVVKAKSKKIPLGGIPSPSTEQSAKKVRKKAENAHNTPLLVLYGSNMGTAEGTARDLADIAMSKGFAPQVATLDSHAGNLPREGAVLIVTASYNGHPPDNAKQFVDWLDQASADEVKGVRYSVFGCGDKNWATTYQKVPAFIDETLAAKGAENIADRGEADASDDFEGTYEEWREHMWSDVAAYFNLDIENSEDNKSTLSLQFVDSAADMPLAKMHGAFSTNVVASKELQQPGSARSTRHLEIELPKEASYQEGDHLGVIPRNYEGIVNRVTARFGLDASQQIRLEAEEEKLAHLPLAKTVSVEELLQYVELQDPVTRTQLRAMAAKTVCPPHKVELEALLEKQAYKEQVLAKRLTMLELLEKYPACEMKFSEFIALLPSIRPRYYSISSSPRVDEKQASITVSVVSGEAWSGYGEYKGIASNYLAELQEGDTITCFISTPQSEFTLPKDPETPLIMVGPGTGVAPFRGFVQARKQLKEQGQSLGEAHLYFGCRSPHEDYLYQEELENAQSEGIITLHTAFSRMPNQPKTYVQHVMEQDGKKLIELLDQGAHFYICGDGSQMAPAVEATLMKSYADVHQVSEADARLWLQQLEEKGRYAKDVWAG
modifications: P450_BM3
For B4, the “% Conv.” value [1] was “+ (0-5.00)”, the TON [1] was “‡‡ (1001-5000)” and the “% Conv.” value [2] was “++++ (15.01-20.00)”. For the same molecule, the TON [2] was “‡‡‡‡ (10000-50000)”, the “% Conv.” value [3] was “+++ (10.01-15.00)” and the TON [3] was “‡‡‡ (5001-10000)”. The “% Conv.” value [4] was “+ (0-5.00)” and the TON [4] was “‡‡ (1001-5000)”.
